According to patent US20200199214A1 (Hoffmann-La Roche, published 2020):

Molecular target: T1, human VEGF121 (human, UniProt P15692-9 27-147)
T1 construct: No tag is stated for these preparations; Kept apart from VEGF121-His; also called HuVEGF121
T1 sequence (looked up): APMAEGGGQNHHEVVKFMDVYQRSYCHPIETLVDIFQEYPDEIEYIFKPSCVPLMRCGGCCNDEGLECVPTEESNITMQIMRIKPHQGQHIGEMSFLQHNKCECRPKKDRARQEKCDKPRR
Assay: SPR competition: Fab preincubated with 50 nM VEGF121, injected over immobilised hVEGFR2 (competitor); in presence of IL-1beta
Experimental: As running and dilution buffer, HBS-P+(10 mM HEPES, 150 mM NaCl pH 7.4, 0.05% Surfactant P20) was used.
For assessing VEGF-receptor binding inhibition, a final concentration of 200 nM of R07200394 or 400 nM antibody 0032 was preincubated with 50 nM VEGF121. For assessing IL-1beta-receptor binding inhibition, a final concentration of 200 nM of R07200394 or 200 nM antibody 0032 was with preincubated with 50 nM IL-1beta. Samples were diluted (1:2) in the corresponding 50 nM VEGF121 or IL-1beta solution.
The antibody/ligand mixtures were injected onto the VEGFR2 or IL-1R1 surface for 60 s at a flow rate of 5 μl/min. After a dissociation phase for 60 s, the VEGFR2 surface was regenerated by injecting 5 mM NaOH for 60 s, whereas the IL-1R1 surface was regenerated by injecting 10 mM Glycine pH 3.0 followed by 5 mM NaOH for 60 s each. Bulk refractive index differences were corrected by subtracting blank injections and by subtracting the response obtained from the blank control flow cell. For evaluation, the binding response 5 seconds after inject end was taken. The derived response in RU was transformed to a binding response relative to the initial signal corresponding to the ligand(s) without antibody. IC50 values were calculated using a 4 parameter logistic model (XLfit, ID Business Solutions Ltd.)

B1: bispecific anti-VEGF/anti-IL-1beta Fab fragment RO7200394 (Fab, V domains shown)
VH: DEQLVESGGGLVKPGGSLRLSCAAEGMVFKWNDMSWVRQAPGKGLEWVGSISKKGDHKYLNTKFIGRFTISRDNEKDTLYLQMNSLRAEDTAVYYCAKDVGFFDIWGQGTLVTVSS
VL: AIYMHQEPSSLSASVGDRVTITCHGSYWLSSLVAWYQQKPGKAPKLLIYDAKYKHLGVPSRFSGSKEDQEFTLTISSLQPEDFATYYCQQYRYHPYTFGHGTKVEIKR
notes: same variable domains as 1HVL12.85; also called R07200394
For B1, the IC50 was 39 nM.
